Molecular target: His–CtBP2 (UniProt P56545 1-445)
Assay: ELISA

B1: CP61 (cyclo-SGWTVVRMY) (peptide)
peptide: SGWTVVRMY
modifications: cyclic peptide (cyclo-SGWTVVRMY)
IC50: 19 ± 4 µM
